Laboratory results published in PMC8808070 (The Journal of Biological Chemistry, 2021).

Experiments:
YjgCD (ForCE1) [1] = molecular target: T1, YjgCD (ForCE1) (Bacillus subtilis, UniProt O34720); test: copurification, HPLC-ECD-MS of lipid extracts; assay type: binding; settings: copurified without detergent, minor species
T1 construct: gene forC; full-length YjgC with N-terminal 6His tag and TEV site, copurified with untagged YjgD; homologous expression in B. subtilis 168; heterodimer 132 kDa; YjgC ~110 kDa, YjgD 21 kDa
T1 sequence (O34720 1-985): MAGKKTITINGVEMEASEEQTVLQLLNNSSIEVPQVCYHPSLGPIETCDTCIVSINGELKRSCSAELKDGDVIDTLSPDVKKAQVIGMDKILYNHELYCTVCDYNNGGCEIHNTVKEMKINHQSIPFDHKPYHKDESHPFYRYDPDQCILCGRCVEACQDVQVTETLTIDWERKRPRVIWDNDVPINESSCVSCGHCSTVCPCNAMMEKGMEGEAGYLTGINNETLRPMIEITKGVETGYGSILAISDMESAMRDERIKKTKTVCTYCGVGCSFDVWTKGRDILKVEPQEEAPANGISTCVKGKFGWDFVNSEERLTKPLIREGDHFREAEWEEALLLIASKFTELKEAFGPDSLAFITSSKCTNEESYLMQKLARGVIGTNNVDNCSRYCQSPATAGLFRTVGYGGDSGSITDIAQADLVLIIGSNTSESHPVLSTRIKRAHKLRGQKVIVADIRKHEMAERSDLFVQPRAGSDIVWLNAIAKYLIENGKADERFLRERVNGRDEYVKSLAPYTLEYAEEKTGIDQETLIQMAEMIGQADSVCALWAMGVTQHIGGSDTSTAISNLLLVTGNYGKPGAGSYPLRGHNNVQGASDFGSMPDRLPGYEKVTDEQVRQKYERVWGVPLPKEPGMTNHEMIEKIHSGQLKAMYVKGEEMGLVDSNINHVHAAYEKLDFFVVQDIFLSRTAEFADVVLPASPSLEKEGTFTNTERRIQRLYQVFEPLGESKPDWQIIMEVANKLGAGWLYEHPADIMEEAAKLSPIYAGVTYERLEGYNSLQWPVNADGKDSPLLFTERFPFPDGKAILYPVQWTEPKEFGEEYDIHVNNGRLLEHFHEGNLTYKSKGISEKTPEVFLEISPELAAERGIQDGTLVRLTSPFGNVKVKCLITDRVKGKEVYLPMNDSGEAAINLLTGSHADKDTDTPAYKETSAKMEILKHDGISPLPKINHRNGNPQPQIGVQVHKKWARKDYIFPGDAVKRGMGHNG
T1 sequence (O34681 1-186 partner): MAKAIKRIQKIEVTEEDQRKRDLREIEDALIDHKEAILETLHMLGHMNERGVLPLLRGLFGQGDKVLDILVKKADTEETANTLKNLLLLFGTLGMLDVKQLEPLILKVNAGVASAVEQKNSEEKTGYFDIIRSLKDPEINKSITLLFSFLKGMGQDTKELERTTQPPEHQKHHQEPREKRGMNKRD

YrhED (ForCE2) = molecular target: T2, YrhED (ForCE2) (Bacillus subtilis, UniProt Q795Y4); test: copurification, HPLC-ECD-MS of lipid extracts; EPR of bound menasemiquinone radical; assay type: binding; settings: copurified without detergent; menasemiquinone radical seen by EPR
T2 construct: gene fdhE; full-length YrhE with N-terminal 6His tag and TEV site, copurified with untagged YrhD; homologous expression in B. subtilis 168; heterodimer 125 kDa; YrhE ~110 kDa, YrhD 17 kDa
T2 sequence (Q795Y4 1-980): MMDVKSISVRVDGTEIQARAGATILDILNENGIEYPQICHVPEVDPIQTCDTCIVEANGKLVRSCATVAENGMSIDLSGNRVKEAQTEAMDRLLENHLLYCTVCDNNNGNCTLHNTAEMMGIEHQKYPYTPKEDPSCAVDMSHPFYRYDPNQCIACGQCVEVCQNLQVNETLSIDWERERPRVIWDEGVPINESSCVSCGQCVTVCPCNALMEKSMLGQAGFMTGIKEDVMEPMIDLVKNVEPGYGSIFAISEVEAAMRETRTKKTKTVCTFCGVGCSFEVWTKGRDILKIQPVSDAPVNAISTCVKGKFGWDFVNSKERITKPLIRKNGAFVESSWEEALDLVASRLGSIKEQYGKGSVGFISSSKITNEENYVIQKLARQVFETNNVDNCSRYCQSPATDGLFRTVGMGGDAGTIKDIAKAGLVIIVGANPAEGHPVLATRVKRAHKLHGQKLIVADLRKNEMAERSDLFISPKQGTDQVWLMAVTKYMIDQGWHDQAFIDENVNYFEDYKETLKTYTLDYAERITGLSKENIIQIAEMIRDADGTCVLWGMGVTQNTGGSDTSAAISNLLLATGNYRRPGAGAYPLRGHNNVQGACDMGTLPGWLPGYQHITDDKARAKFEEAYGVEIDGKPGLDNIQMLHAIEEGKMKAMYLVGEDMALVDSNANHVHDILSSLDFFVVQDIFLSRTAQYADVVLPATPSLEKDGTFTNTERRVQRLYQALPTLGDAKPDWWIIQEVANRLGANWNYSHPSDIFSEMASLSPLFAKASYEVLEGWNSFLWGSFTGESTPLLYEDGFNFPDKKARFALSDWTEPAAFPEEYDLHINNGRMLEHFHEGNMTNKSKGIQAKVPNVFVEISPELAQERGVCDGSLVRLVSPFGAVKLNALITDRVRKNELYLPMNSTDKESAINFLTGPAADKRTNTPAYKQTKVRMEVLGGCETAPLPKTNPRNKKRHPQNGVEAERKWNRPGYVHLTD
T2 sequence (O05396 1-160 partner): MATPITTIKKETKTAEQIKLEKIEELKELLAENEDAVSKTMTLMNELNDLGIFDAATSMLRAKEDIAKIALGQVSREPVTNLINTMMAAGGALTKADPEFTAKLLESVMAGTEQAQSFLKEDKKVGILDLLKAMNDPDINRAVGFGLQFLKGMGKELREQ

YjgCD (ForCE1) [2] = molecular target: T1, YjgCD (ForCE1); test: as above; assay type: binding; settings: copurified without detergent; neutral menasemiquinone form seen by EPR at pH 6.0 and 7.5
purified protein [3] = substrate: CC1=CC(=O)c2ccccc2C1=O; test: purified protein; assay type: biochemical, Bacillus subtilis; settings: 50 mM sodium formate as electron donor, 25 mM CHES pH 9, room temperature, anaerobic
purified protein [4] = substrate: O=CO; test: purified protein; settings: anaerobic
[5] = benzyl viologen as electron acceptor (1.75 mM), 25 mM CHES pH 8.6, room temperature, pH 8.6
[6] = benzyl viologen as electron acceptor (17.5 mM), 25 mM CHES pH 10, room temperature, pH 10.0

CC(C)=CCC/C(C)=C/CC/C(C)=C/CC/C(C)=C/CC/C(C)=C/CC/C(C)=C/CC/C(C)=C/CC/C(C)=C/CC1=C(C)C(=O)c2ccccc2C1=O [MK-8]
copurification, HPLC-ECD-MS of lipid extracts (YjgCD (ForCE1) [1]): ForCE1 is also able to bind MK-8 at a low but significant ratio

CC(C)=CCC/C(C)=C/CC/C(C)=C/CC/C(C)=C/CC/C(C)=C/CC/C(C)=C/CC/C(C)=C/CC1=C(C)C(=O)c2ccccc2C1=O [MK-7]
ForCE2-MK-7 ratio (YrhED (ForCE2)): 1:1.63 | ForCE1-MK-7 ratio (YjgCD (ForCE1) [2]): 1:0.87

B1: YrhED (ForCE2) (Bacillus subtilis subsp. subtilis str. 168) (protein)
chain: MMDVKSISVRVDGTEIQARAGATILDILNENGIEYPQICHVPEVDPIQTCDTCIVEANGKLVRSCATVAENGMSIDLSGNRVKEAQTEAMDRLLENHLLYCTVCDNNNGNCTLHNTAEMMGIEHQKYPYTPKEDPSCAVDMSHPFYRYDPNQCIACGQCVEVCQNLQVNETLSIDWERERPRVIWDEGVPINESSCVSCGQCVTVCPCNALMEKSMLGQAGFMTGIKEDVMEPMIDLVKNVEPGYGSIFAISEVEAAMRETRTKKTKTVCTFCGVGCSFEVWTKGRDILKIQPVSDAPVNAISTCVKGKFGWDFVNSKERITKPLIRKNGAFVESSWEEALDLVASRLGSIKEQYGKGSVGFISSSKITNEENYVIQKLARQVFETNNVDNCSRYCQSPATDGLFRTVGMGGDAGTIKDIAKAGLVIIVGANPAEGHPVLATRVKRAHKLHGQKLIVADLRKNEMAERSDLFISPKQGTDQVWLMAVTKYMIDQGWHDQAFIDENVNYFEDYKETLKTYTLDYAERITGLSKENIIQIAEMIRDADGTCVLWGMGVTQNTGGSDTSAAISNLLLATGNYRRPGAGAYPLRGHNNVQGACDMGTLPGWLPGYQHITDDKARAKFEEAYGVEIDGKPGLDNIQMLHAIEEGKMKAMYLVGEDMALVDSNANHVHDILSSLDFFVVQDIFLSRTAQYADVVLPATPSLEKDGTFTNTERRVQRLYQALPTLGDAKPDWWIIQEVANRLGANWNYSHPSDIFSEMASLSPLFAKASYEVLEGWNSFLWGSFTGESTPLLYEDGFNFPDKKARFALSDWTEPAAFPEEYDLHINNGRMLEHFHEGNMTNKSKGIQAKVPNVFVEISPELAQERGVCDGSLVRLVSPFGAVKLNALITDRVRKNELYLPMNSTDKESAINFLTGPAADKRTNTPAYKQTKVRMEVLGGCETAPLPKTNPRNKKRHPQNGVEAERKWNRPGYVHLTD
notes: full-length YrhE with N-terminal 6His tag and TEV site, copurified with untagged YrhD; homologous expression in B. subtilis 168; heterodimer 125 kDa; YrhE ~110 kDa, YrhD 17 kDa
Km (purified protein [3]): 23 ± 5 µM | Vmax (purified protein [3]): 12.6 µmol/min | kcat (purified protein [3]): 26.4 ± 1.8 s⁻¹ | Km (purified protein [4]; [5]): 1100 ± 100 µM | Vmax (purified protein [4]; [5]): 26.6 µmol/min | kcat (purified protein [4]; [5]): 55.8 s⁻¹

B2: YjgCD (ForCE1) (Bacillus subtilis subsp. subtilis str. 168) (protein)
chain: MAGKKTITINGVEMEASEEQTVLQLLNNSSIEVPQVCYHPSLGPIETCDTCIVSINGELKRSCSAELKDGDVIDTLSPDVKKAQVIGMDKILYNHELYCTVCDYNNGGCEIHNTVKEMKINHQSIPFDHKPYHKDESHPFYRYDPDQCILCGRCVEACQDVQVTETLTIDWERKRPRVIWDNDVPINESSCVSCGHCSTVCPCNAMMEKGMEGEAGYLTGINNETLRPMIEITKGVETGYGSILAISDMESAMRDERIKKTKTVCTYCGVGCSFDVWTKGRDILKVEPQEEAPANGISTCVKGKFGWDFVNSEERLTKPLIREGDHFREAEWEEALLLIASKFTELKEAFGPDSLAFITSSKCTNEESYLMQKLARGVIGTNNVDNCSRYCQSPATAGLFRTVGYGGDSGSITDIAQADLVLIIGSNTSESHPVLSTRIKRAHKLRGQKVIVADIRKHEMAERSDLFVQPRAGSDIVWLNAIAKYLIENGKADERFLRERVNGRDEYVKSLAPYTLEYAEEKTGIDQETLIQMAEMIGQADSVCALWAMGVTQHIGGSDTSTAISNLLLVTGNYGKPGAGSYPLRGHNNVQGASDFGSMPDRLPGYEKVTDEQVRQKYERVWGVPLPKEPGMTNHEMIEKIHSGQLKAMYVKGEEMGLVDSNINHVHAAYEKLDFFVVQDIFLSRTAEFADVVLPASPSLEKEGTFTNTERRIQRLYQVFEPLGESKPDWQIIMEVANKLGAGWLYEHPADIMEEAAKLSPIYAGVTYERLEGYNSLQWPVNADGKDSPLLFTERFPFPDGKAILYPVQWTEPKEFGEEYDIHVNNGRLLEHFHEGNLTYKSKGISEKTPEVFLEISPELAAERGIQDGTLVRLTSPFGNVKVKCLITDRVKGKEVYLPMNDSGEAAINLLTGSHADKDTDTPAYKETSAKMEILKHDGISPLPKINHRNGNPQPQIGVQVHKKWARKDYIFPGDAVKRGMGHNG
notes: full-length YjgC with N-terminal 6His tag and TEV site, copurified with untagged YjgD; homologous expression in B. subtilis 168; heterodimer 132 kDa; YjgC ~110 kDa, YjgD 21 kDa
Km (purified protein [3]): 25 ± 3 µM | Vmax (purified protein [3]): 7.5 µmol/min | kcat (purified protein [3]): 16.5 ± 0.6 s⁻¹ | Km (purified protein [4]; [6]): 5100 ± 900 µM | Vmax (purified protein [4]; [6]): 43.7 µmol/min | kcat (purified protein [4]; [6]): 96.1 s⁻¹
